Measurements as given in patent publication US20050048603A1 (priority 2001, published 2005).

T1: mycoAC204-443R376A (Mycobacterium tuberculosis, UniProt P9WQ35 204-443)
T1 sequence: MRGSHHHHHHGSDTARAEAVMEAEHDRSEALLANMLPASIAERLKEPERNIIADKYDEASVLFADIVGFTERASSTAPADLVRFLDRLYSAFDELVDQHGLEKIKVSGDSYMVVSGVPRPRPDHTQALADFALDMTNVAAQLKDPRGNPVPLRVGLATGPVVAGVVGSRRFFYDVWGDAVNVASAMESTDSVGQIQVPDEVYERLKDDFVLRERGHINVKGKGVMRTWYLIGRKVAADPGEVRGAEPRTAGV


Experiments:
mycoAC204-443R376A = biological target: T1, mycoAC204-443R376A

Row | Binder | specific adenylyl cyclase activity against protein concentration (P9WQ35) | Kd (mycoAC204-443R376A) [µM]
1 | mycoAC204-443 (protein) MRGSHHHHHHGSDTARAEAVMEAEHDRSEALLANMLPASIAERLKEPERNIIADKYDEASVLFADIVGFTERASSTAPADLVRFLDRLYSAFDELVDQHGLEKIKVSGDSYMVVSGVPRPRPDHTQALADFALDMTNVAAQLKDPRGNPVPLRVGLATGPVVAGVVGSRRFFYDVWGDAVNVASRMESTDSVGQIQVPDEVYERLKDDFVLRERGHINVKGKGVMRTWYLIGRKVAADPGEVRGAEPRTAGV | From 50 to 300 nM it increased five-fold | –
2 | mycoAC204-443D300A (enzyme) MRGSHHHHHHGSDTARAEAVMEAEHDRSEALLANMLPASIAERLKEPERNIIADKYDEASVLFADIVGFTERASSTAPADLVRFLDRLYSAFDELVDQHGLEKIKVSGASYMVVSGVPRPRPDHTQALADFALDMTNVAAQLKDPRGNPVPLRVGLATGPVVAGVVGSRRFFYDVWGDAVNVASRMESTDSVGQIQVPDEVYERLKDDFVLRERGHINVKGKGVMRTWYLIGRKVAADPGEVRGAEPRTAGV | – | 2
3 | mycoAC204-443D256A (enzyme) MRGSHHHHHHGSDTARAEAVMEAEHDRSEALLANMLPASIAERLKEPERNIIADKYDEASVLFAAIVGFTERASSTAPADLVRFLDRLYSAFDELVDQHGLEKIKVSGDSYMVVSGVPRPRPDHTQALADFALDMTNVAAQLKDPRGNPVPLRVGLATGPVVAGVVGSRRFFYDVWGDAVNVASRMESTDSVGQIQVPDEVYERLKDDFVLRERGHINVKGKGVMRTWYLIGRKVAADPGEVRGAEPRTAGV | – | 2
